Data reported in US20250188193A1 (ROCKEFELLER UNIVERSITY, published 2025).
Numbering of substitutions follows the chain as printed.

Assays:
[1] = molecular target: T1, anti-NP antibody 3B62, afucosylated IgG (monomeric, or as immune complex with NP-BSA) (chain 1 pos 82 (Asn297 EU): afucosylated N-glycan; the Fc is a disulfide-linked homodimer; in FIG. 11E it is complexed with NP-BSA through the Fab arms); assay: competition ELISA: nanobody pre-complexed with monomeric afucosylated 3B62, then captured on coated FcγRI; the blocked ligand is FcγRI
T1 construct: Immune complexes made with NP-BSA (27 conjugations) at a 10:1 molar ratio; also called monomeric 3B62; IgG immune complexes
Procedure: Recombinant FcγR ectodomains were expressed in Expi-293F and purified with Ni-NTA resin as in previously described protocols (S. Chakraborty et al., Sci. Transl. Med., eabm7853 (2022)). […] Plates were then blocked with PBS plus 2% (w/v) BSA. IgG immune complexes were prepared by incubation of an anti-NP (4-hydroxy-3-nitrophenylacetyl) antibody 3B62 with NP-BSA (27 conjugations) at a 10:1 molar ratio for 1h at 4° C. […] IgG immune complexes or monomeric 3B62 were brought to a concentration of 20 ug ml⁻¹ or 2 μg/ml respectively and pre-complexed at a 1:1 (v/v) ratio for 1h at room temperature and then captured on FcγR-coated plates. Following 1h incubation, bound IgG was detected using a 1:5000 dilution of horseradish peroxidase (HRP)-conjugated goat F(ab′)₂ anti-human IgG (H+L) (Jackson Immunoresearch). Plates were developed with TMB (3,3′,5,5′-tetramethylbenzidine) two-component peroxidase substrate kit. Reactions were quenched with 1M phosphoric acid. Absorbance at 450 nm was recorded using a SpectraMax Plus spectrophotometer (Molecular Devices). Background absorbance was subtracted for samples, and % maximum binding was determined against an IgG or immune complex only control.

[2] = molecular target: T2, aglycosylated 3B62 N297A mutant (aglycosylated (no N-glycan after N297A); the Fc is a disulfide-linked homodimer); assay: SPR (Biacore T200)
T2 construct: 297 is an EU position, not a position on the UniProt entry; also called aglycosylated N297A IgG1 mutant; aglycosylated IgG
Procedure: Traces are raw data, while 1:1 Langmuir global kinetic fits are shown in black.
Surface Plasmon Resonance (SPR) was performed on a Biacore T200 machine (Cytiva Life Sciences). In some experiments, purified IgG glycoforms diluted in HBS-EP+ were immobilized on the surface of a Protein A or Protein G CM5 sensor chip at 1000 RU (˜50 nM). Purified nanobodies were flowed over IgG-bound sensor chips at the indicated concentrations at 30 uL/minute for 60 seconds, followed by 600 seconds of dissociation. Sensor chips were regenerated with 10 mM Glycine-HCl pH 1.5.

[3] = molecular target: T3, IgG1 S2G2 glycoform (antibody clone not named); assay: ELISA with B7; the concentration of the IgG1 glycoform is varied
T3 construct: also called afucosylated form of IgG1

[4] = molecular target: T4, Rituximab G2 (galactosylated afucosylated glycoform); assay: SPR (Biacore T200), 1:1 Langmuir kinetic fit
T4 construct: Whole IgG1; also called G2-Rituximab; G2 glycoform of IgG1 Fc

B1: X0 (VHH)
VHH: QVQLQESGGGLVQAGGSLRLSCAASPGISRYKTMGWYRQAPGKERSFVAAITWGGLTYYADSVKGRFTVSRDNAKNTVYLQMNSLKPEDTAVYYCSVDGGTRADPYHYYWGQGTQVTVSS
notes: also called clone X0; not shown: His tag and AviTag from the pET26-b(+) construct
- IC50 (read off the curve) [1]: ~1000 nM

B2: B7 (VHH, not shown: small tags and cut ends)
VHH: B1 VHH with P26G, S46E, A50G, L56S, V69I, R102Y
notes: also called clone B7; nanobody B7
- binding result [2]: no binding (tested: top concentration 256 nM)
- EC50 (read off the curve) [3]: ~0.4 µg/mL

B3: C11 (VHH, not shown: small tags and cut ends)
VHH: B1 VHH with P26G, G27Y, K32H, S46E, A50G, L56S, V69I, S96A, R102Y
notes: also called clone C11; C11 parental clone
- Kd [4]: 22800 nM

B4: mC11 (VHH)
VHH: B1 VHH with S29Y, M34I, G35A, Y59R, D104Q, Y106V
notes: also called clone mC11; not shown: His tag and AviTag from the pET26-b(+) construct
- IC50 (read off the curve) [1]: ~400 nM
